{"source": "paper PMC5142293", "about": "“Characterization of spermidine hydroxycinnamoyl transferases from eggplant (Solanum melongena L.) and its wild relative Solanum richardii Dunal” (Horticulture Research, 2016)", "experiment_in_all_cases": "spectrophotometric acylation assay, microplate (absorbance loss of CoA ester)", "conditions_in_all_cases": "2.5 mM polyamine acceptor (text b49: spermidine; table title and b21: spermine), pH 9.0, 30 °C, Tris-HCl, 10 mM EDTA", "key": {"[1]": {"substrate": "CC(C)(COP(=O)(O)OP(=O)(O)OC[C@H]1O[C@@H](n2cnc3c(N)ncnc32)[C@H](O)[C@@H]1OP(=O)(O)O)[C@@H](O)C(=O)NCCC(=O)NCCSC(=O)/C=C/c1ccc(O)cc1", "type": "biochemical, Solanum virginianum", "description": "(§1) spectrophotometric acylation assay, microplate (absorbance loss of CoA ester) on SmSHT"}, "[2]": {"substrate": "COc1cc(/C=C/C(=O)SCCNC(=O)CCNC(=O)[C@H](O)C(C)(C)COP(=O)(O)OP(=O)(O)OC[C@H]2O[C@@H](n3cnc4c(N)ncnc43)[C@H](O)[C@@H]2OP(=O)(O)O)ccc1O", "type": "biochemical, Solanum virginianum", "description": "as §1"}, "[3]": {"substrate": "CC(C)(COP(=O)(O)OP(=O)(O)OC[C@H]1O[C@@H](n2cnc3c(N)ncnc32)[C@H](O)[C@@H]1OP(=O)(O)O)[C@@H](O)C(=O)NCCC(=O)NCCSC(=O)/C=C/c1ccc(O)c(O)c1", "type": "biochemical, Solanum virginianum", "description": "as §1"}, "[4]": {"substrate": "CC(C)(COP(=O)(O)OP(=O)(O)OC[C@H]1O[C@@H](n2cnc3c(N)ncnc32)[C@H](O)[C@@H]1OP(=O)(O)O)[C@@H](O)C(=O)NCCC(=O)NCCSC(=O)/C=C/c1ccc(O)cc1", "type": "biochemical, Solanum richardii", "description": "(§2) spectrophotometric acylation assay, microplate (absorbance loss of CoA ester) on SrSHT"}, "[5]": {"substrate": "COc1cc(/C=C/C(=O)SCCNC(=O)CCNC(=O)[C@H](O)C(C)(C)COP(=O)(O)OP(=O)(O)OC[C@H]2O[C@@H](n3cnc4c(N)ncnc43)[C@H](O)[C@@H]2OP(=O)(O)O)ccc1O", "type": "biochemical, Solanum richardii", "description": "as §2"}, "[6]": {"substrate": "CC(C)(COP(=O)(O)OP(=O)(O)OC[C@H]1O[C@@H](n2cnc3c(N)ncnc32)[C@H](O)[C@@H]1OP(=O)(O)O)[C@@H](O)C(=O)NCCC(=O)NCCSC(=O)/C=C/c1ccc(O)c(O)c1", "type": "biochemical, Solanum richardii", "description": "as §2"}}, "data": [{"protein": "SmSHT (Solanum virginianum) (protein, full-length ORF, 453 residues, pET-32a(+) N-terminal His-tag (73 kDa with tag, 51 kDa predicted), E. coli, Ni-NTA purified) MKVILKNHWVVKPAAPTWTGTVSLSEFDQTFAVTHVPTIYYYKFVQDFITSTDEIIKTLKTSLSEALVHFYPLAGRLRWISGSRLELECDASGVVLTEAETDAKLDDLDSFLLSPNYNSLFPRVDYTIPIDELPLLFVQLTKFQCGGIALSFAISHAVVDGHSALYFFSEWARLSRGEPLMFAPFHDRKVLRAGEPAIACPTFEHLQFNTPPLLIGKSSTENEKKKETKGSMLKLTKLQVEMLREKANQGRNLEDSRERSYTRYEVVTAHIWRCACKARGHKFEQPTNLCICVDIRRRMDPPLPSSYFGNAIVDVIATGASGDIVLSPLECAAKRVREAIKMVTSDYANSTINFLKKEEDLSKYQDIHAFRNKEGPFYGNPNLGVISWISLPVLGLDFGWGKEFHMSPGIHEYDGDCVILPDNEGDGSLTVAIVLQEAHVDAFKKFFYEDIEC", "values": [{"measurement": "Km", "setting": "[1]", "value": "29.6 ± 5.8", "unit": "µM"}, {"measurement": "kcat", "setting": "[1]", "value": "3.02 ± 0.122", "unit": "s⁻¹"}, {"measurement": "kcat/Km", "setting": "[1]", "value": "102000 ± 3330", "unit": "M⁻¹ s⁻¹"}, {"measurement": "Km", "setting": "[2]", "value": "27.3 ± 5.6", "unit": "µM"}, {"measurement": "kcat", "setting": "[2]", "value": "3.87 ± 0.205", "unit": "s⁻¹"}, {"measurement": "kcat/Km", "setting": "[2]", "value": "142000 ± 8330", "unit": "M⁻¹ s⁻¹"}, {"measurement": "Km", "setting": "[3]", "value": "58.3 ± 1.7", "unit": "µM"}, {"measurement": "kcat", "setting": "[3]", "value": "7.36 ± 0.185", "unit": "s⁻¹"}, {"measurement": "kcat/Km", "setting": "[3]", "value": "127000 ± 3330", "unit": "M⁻¹ s⁻¹"}]}, {"protein": "SrSHT (Solanum richardii) (protein, full-length ORF, 453 residues, pET-32a(+) N-terminal His-tag (73 kDa with tag, 51 kDa predicted), E. coli, Ni-NTA purified; natural ortholog differing from SmSHT by C200S, P286S, R297K, L326S, K402E) MKVILKNHWVVKPAAPTWTGTVSLSEFDQTFAVTHVPTIYYYKFVQDFITSTDEIIKTLKTSLSEALVHFYPLAGRLRWISGSRLELECDASGVVLTEAETDAKLDDLDSFLLSPNYNSLFPRVDYTIPIDELPLLFVQLTKFQCGGIALSFAISHAVVDGHSALYFFSEWARLSRGEPLMFAPFHDRKVLRAGEPAIASPTFEHLQFNTPPLLIGKSSTENEKKKETKGSMLKLTKLQVEMLREKANQGRNLEDSRERSYTRYEVVTAHIWRCACKARGHKFEQSTNLCICVDIRKRMDPPLPSSYFGNAIVDVIATGASGDIVSSPLECAAKRVREAIKMVTSDYANSTINFLKKEEDLSKYQDIHAFRNKEGPFYGNPNLGVISWISLPVLGLDFGWGEEFHMSPGIHEYDGDCVILPDNEGDGSLTVAIVLQEAHVDAFKKFFYEDIEC", "values": [{"measurement": "Km", "setting": "[4]", "value": "38.4 ± 3.3", "unit": "µM"}, {"measurement": "kcat", "setting": "[4]", "value": "4.33 ± 0.243", "unit": "s⁻¹"}, {"measurement": "kcat/Km", "setting": "[4]", "value": "113000 ± 6670", "unit": "M⁻¹ s⁻¹"}, {"measurement": "Km", "setting": "[5]", "value": "51.3 ± 10.6", "unit": "µM"}, {"measurement": "kcat", "setting": "[5]", "value": "6.88 ± 1", "unit": "s⁻¹"}, {"measurement": "kcat/Km", "setting": "[5]", "value": "133000 ± 20000", "unit": "M⁻¹ s⁻¹"}, {"measurement": "Km", "setting": "[6]", "value": "67.1 ± 7.6", "unit": "µM"}, {"measurement": "kcat", "setting": "[6]", "value": "10.1 ± 0.483", "unit": "s⁻¹"}, {"measurement": "kcat/Km", "setting": "[6]", "value": "150000 ± 6670", "unit": "M⁻¹ s⁻¹"}]}]}
